Experimental data from patent publication US20180188195A1, “SYSTEMS AND METHODS FOR MULTIPLEXED HEMOSTASIS TEST PANELS” (T2 Biosystems, Inc., priority 2015, published 2018).

Columns and labels:
Type in all cases: cell-based, human
[1] = test system: citrated whole blood; experiment: T2In T2MR clotting time, intrinsic pathway activator (ellagic acid); settings: T2In, 3 donors, different tPA concentrations, with or without aprotinin
Text: In another embodiment a coagulopathy panel is used with an intrinsic activator such as ellagic acid. The common range of clotting time is often between 100 and 120 seconds for normal blood. However, it can be 22-30 seconds, 30-44 seconds, 44-60 seconds, 60-80 seconds, 80-100 seconds, up to 2 times to 4 times the range of normal T2MR clotting times for the extrinsic activator. The abnormal clotting time ranges are above or below the normal range. The total range easily measured is 8-300 seconds though a measurement up to or beyond 1000 seconds could be performed with modified acquisition. If aprotinin is added in addition to intrinsic activator, clotting times can often be from 110.9-151.0 seconds in normal blood.
The general intrinsic activator protocol is as follows (T2In panel): an intrinsic activator solution was prepared by mixing tissue factor reagent with CaCl2. To 36.7 μL of citrated whole blood (warmed to approximately 37° C. for 3 minutes and mixed) was added 5 μL of the intrinsic activator solution (also been warmed to approximately 37° C. for one minute). The resulting solution was mixed and subjected to T2 measurements for 50 minutes. […] The T2MR of the sample was measured for 30 minutes.
The T2Ex or the T2In protocols were also used with the addition of aprotinin (T2Ex-A and T2In-A) respectively. […] The sample was mixed and read in the T2reader. […]

[2] = test system: citrated whole blood; experiment: T2In platelet activity and fibrinolysis measurement with tPA or aprotinin; settings: ellagic acid with CaCl2; tPA 0, 2 or 4 nM or aprotinin control; 65 min
Description: The T2Ex or the T2In protocols were also used with the addition of aprotinin (T2Ex-A and T2In-A) respectively. For the intrinsic pathway measurement (T2In), intrinsic activator solution was prepared by mixing ellagic acid stock and CaCl2. For the intrinsic pathway measurement that includes aprotinin (T2In-A), add 41.7 μL of a 1 mg/mL stock of aprotinin to 1 mL intrinsic activator solution. 36.7 μL citrated whole blood that had been warmed to approximately 37° C. for three minutes was added and mixed. 5 μL of intrinsic activator solution with aprotinin that had been warmed to approximately 37° C. for one minute was added. The sample was mixed and read in the T2reader. The clotting time measurement was obtained after 5 minutes and then the platelet activity and fibrinolysis measurements were obtained over the following 60 minutes. In a separate assay the effects of the amounts of activator were tested.
Platelet activity and fibrinolysis measurements for the 3 donor samples in the T2In assay are shown in FIG. 15a-15b. tPA levels of 0 nM, 2 nM or 4 nM were added to citrated whole blood. Blood samples (36.7 μL) were activated by addition of 5 μL ellagic acid solution with CaCl2. T2MR data was collected for 65 min. The addition of tPA cleaves the fibrin mesh of the clot and results in clot dissolution over time. This is detected by T2MR by the change in T2 value of the serum peak (third phase). […]

[3] = test system: re-calcified citrated whole blood; experiment: T2MR fibrinolysis of thrombin-clotted re-calcified citrated blood after tPA addition
Description: In one embodiment, blood clotting was initiated by addition of 2 μL of a 0.2 M CaCl2 solution and 2 μL of thrombin (Sigma-Aldrich, St. Louis, Mo., final concentration 0.1-3.0 U/ml) to 34 μL of blood in a 200 μL PCR tube (Eppendorf, Hauppauge, N.Y.). All components were pre-warmed for 1 min at 37° C. before mixing. Samples were mixed by three aspiration and dispersion cycles using a pipette, then put into the T2MR reader for measurement. Typical run length was 30 min with a 10 sec sampling rate. For some experiments, data collection time was extended to 1 hr.
To establish T2MR signatures for fibrinolysis, tissue plasminogen activator (tPA, Alteplase, Genentech, South San Francisco, Calif.) was added to samples clotted by thrombin. Blood clotting was initiated as described above, and the sample was incubated for […] to allow for complete clot contraction. Then, 0.5-1 μM tPA was added to clotted and contracted samples. Care was taken not to disturb clots, which were usually attached to the tube wall. The pipette tip was carefully placed into the visible serum layer on the tube side opposite to the contracted clot, and 3 μL of tPA solution was added with a single dispensing of the pipettor. The tPA solutions were made from a stock solution prepared according to manufacturer instructions using 0.15 M sodium chloride, pH 7.4.
In one embodiment, the dependencies of the T2MR signals during clotting of re-calcified citrated blood samples from healthy donors initiated by adding 3 U/ml thrombin was measured. Thrombin activates platelets and cleaves fibrinogen to form a three-dimensional fibrin network stabilized by factor XIIIa. Addition of thrombin led to rapid formation of a gelatinous meshwork that filled the sample volume accompanied by a small, rapid decrease in the T2MR signal over tens of seconds due to the sample transitioning from a liquid to gel state. In the initial gel state, only one relaxation rate was observed (FIG. 2, part a), reflecting uniform distribution of erythrocytes and other blood components. Approximately four minutes after thrombin addition, the T2MR signal split into two peaks representing distinct water populations in slow exchange with each other. […]
We then assessed the sensitivity of the T2MR platform to fibrinolysis by adding tissue-type plasminogen activator (tPA) to the clotted samples 30 minutes after thrombin.
The compartment generating the signal in FIG. 2, part b, at 300 ms that dropped to 200 ms was assessed by testing two conditions: (1) re-calcified citrated whole blood activated with thrombin to form a contracted clot and (2) re-calcified citrated whole blood activated with thrombin followed by addition of tPA. After incubation, samples were analyzed before and after mixing with a pipette to re-suspend unbound erythrocytes. […]

[4] = test system: citrated blood; experiment: T2MR clot strength (DiffT2), calcium and kaolin activation of abciximab-treated citrated blood; settings: abciximab 4 or 8 μg/ml added ex vivo; 13 minutes after activation; 3 healthy donors
Description: (§1) The DiffT2 value was calculated by taking the difference between the upper and middle T2 values in the T2MR signature at a time point 13 minutes after activation. Data are shown here using samples from 3 healthy donors where clot strength was adjusted by ex vivo addition of abciximab (ReoPro) at a level of 0, 4, or 8 μg/ml prior to measurement. All samples containing abciximab were at DiffT2 values of <100 ms or TEG MA values less than 40.
(§2) A 0.5 mg/ml solution of abciximab was prepared by diluting the stock 10 mg/5 ml solution by 1:4 in saline. The abciximab-treated blood samples were incubated for at least 5 min prior to clotting. Clotting was initiated by adding 2 μL 0.2 M CaCl2 and 2 μL TEG kaolin to 34 μL of abciximab-treated blood sample. To compare the T2MR signal to TEG MA, a DiffT2 parameter was calculated by taking the difference in T2 between the upper and middle peaks at a time point 13 min after adding calcium and kaolin. The TEG MA values were measured on the same samples following manufacturer instructions.
(§3) For comparison between T2MR and TEG, calcium and kaolin activation of citrated blood was used and normal donor samples were treated with various amounts of abciximab, an inhibitor of the platelet glycoprotein αIIbβ3 receptor that binds fibrin and is essential for clot contraction.

[5] = test system: citrated blood; experiment: Thromboelastography maximum amplitude (TEG MA) on the same abciximab-treated samples; settings: abciximab 4 or 8 μg/ml added ex vivo; 3 healthy donors
Description: as §1, §2, §3

[6] = test system: citrated whole blood; experiment: T2In intrinsic assay for platelet activity, ReoPro titration
Description: Citrated whole blood from normal donors was spiked with varying concentrations of the platelet inhibitor ReoPro (Abcixirnab). 5 μL of ellagic acid solution with CaCl2 was used to activate 36.7 μL of blood with or without ReoPro inhibition. T2MR data was collected for 35 minutes. Addition of platelet inhibitor had no effect on T2MR measured clot time or % deltaT2. […] There was some donor to donor differences in responsiveness to ReoPro.

[7] = tPA added 30 minutes after thrombin
[8] = ellagic acid with CaCl2, varying ReoPro concentrations

| Molecule | clotting time curves (% deltaT2) [1] | change in T2 value of the serum peak (third phase) [2] | 200-300 ms signal after mixing ([3]; clotted with thrombin then lysed with tPA, mixed with a pipette) | T2 value of the upper peak after tPA addition [3, 7] | third peak at ~100 ms after tPA addition [3, 7] | T2 value of the middle peak after tPA addition ([3]; tPA added 30 minutes after thrombin, decreased from 250) [ms] | DiffT2 [4] [ms] | TEG MA [5] | effect on % deltaT2 [6, 8] | effect on T2MR measured clot time [6, 8] | platelet activity measurement (FIG. 27) ([6]; intrinsic activator, 5 μg/mL and 10 μg/mL ReoPro) |
| --- | --- | --- | --- | --- | --- | --- | --- | --- | --- | --- | --- |
| tPA: tissue plasminogen activator (tPA, Alteplase, Genentech), inducer of fibrinolysis (protein, UniProt P00750 36-562, looked up, alteplase) Tissue-type plasminogen …: SYQVICRDEKTQMIYQQHQSWLRPVLRSNRVEYCWCNSGRAQCHSVPVKSCSEPRCFNGGTCQQALYFSDFVCQCPEGFAGKCCEIDTRATCYEDQGISYRGTWSTAESGAECTNWNSSALAQKPYSGRRPDAIRLGLGNHNYCRNPDRDSKPWCYVFKAGKYSSEFCSTPACSEGNSDCYFGNGSAYRGTHSLTESGASCLPWNSMILIGKVYTAQNPSAQALGLGKHNYCRNPDGDAKPWCHVLKNRRLTWEYCDVPSCSTCGLRQYSQPQFRIKGGLFADIASHPWQAAIFAKHRRSPGERFLCGGILISSCWILSAAHCFQERFPPHHLTVILGRTYRVVPGEEEQKFEVEKYIVHKEFDDDTYDNDIALLQLKSDSSRCAQESSVVRTVCLPPADLQLPDWTECELSGYGKHEALSPFYSERLKEAHVRLYPSSRCTSQHLLNRTVTDNMLCAGDTRSGGPQANLHDACQGDSGGPLVCLNDGRMTLVGIISWGLGCGQKDVPGVYTKVTNYLDWIRDNMRP | appear to overlay | larger change | disappeared altogether | decreased rapidly | persisted | 175 |  |  |  |  |  |
| abciximab (antibody, chains of the INN, looked up, V domains shown, Fab) VH: EVQLQQSGTVLARPGASVKMSCEASGYTFTNYWMHWVKQRPGQGLEWIGAIYPGNSDTSYIQKFKGKAKLTAVTSTTSVYMELSSLTNEDSAVYYCTLYDGYYVFAYWGQGTLVTVSA VL: EIVLTQSPVTLSVTPGDSVSLSCRASRDISNNLHWFQQTSHESPRLLIKYASQSMSGIPSRFSGSGSGTDFTLSINSVETEDFGMYFCQQTNSWPYTFGGGTKLEIK |  |  |  |  |  |  | < 100 | less than 40 | no effect | no effect | inhibition of platelet activity |
